Measured values: patent publication US8431396B2, “Anti-angiogenic peptides” (The Cleveland Clinic Foundation, priority 2003, dated 2013)

Assays:
[1] = test system: chick embryo chorioallantoic membrane (CAM); assay: Chick embryo chorioallantoic membrane (CAM) assay of VEGF-mediated angiogenesis; format: in vivo, chicken; conditions: VEGF165 100 ng
Source text: The CAM assay was done as described with slight modifications. Fertilized 3-day-old white Leghorn eggs (Sunnyside, Beaver Dam, Wis.) were cracked and embryos with the yolk intact were placed in glass-bottomed Petri dishes. […] Angiogenesis was reported as the angiogenic index (mean number of tertiary branchpoints from experimental conditions minus the mean number of branchpoints from buffer controls with no angiogenic stimulator).

PAE-KDR cells [2] = assay: Endothelial cell migration toward VEGF (modified Boyden chamber); format: cell-based, porcine
Experimental: (B) Comparison of the effects of rTIMP3, rTIMP1 and BB3103 on VEGF165-induced migration of PAE-KDR cells. […] In all migration experiments, migrating cell number is expressed as mean±s.e.m. of quadruplicate samples. All experiments were done in triplicate. Open symbols, KDR-vector; closed symbols, KDR-TIMP3.*, P<0.01; **, P<0.05.
(§1) A modified Boyden chamber assay for migration and proliferation assays were carried out as described.

PAE-KDR cells [3] = assay: Endothelial cell proliferation in response to VEGF165 and VEGF121; format: cell-based, porcine
Experimental: (A) Proliferative response of PAE-KDR cells to VEGF165 (5 ng/ml; left) and VEGF121 (30 ng/ml; right). […] (C) DNA synthesis of endothelial cells in response to VEGF165. […] [3H]thymidine incorporation was measured during the last 5 h of incubation. (D) Analysis of endothelial cell expressing TIMP3. […] Expression of TIMP3 protein was determined by immunoblotting with antibody against TIMP3 (top left). MMP-inhibitory activity was determined by reverse zymography (top right). Corresponding densito-metric quantitation is expressed as arbitrary optical density (OD) units±s.d. (C) DNA synthesis in adenovirus-infected cells in response to VEGF. […] In all proliferation experiments, total number of cells was counted at 48 h. Proliferating cell number is expressed as means±s.e.m. of quadruplicate samples. DNA synthesis data represent the means±s.e.m. of triplicate samples; similar results were obtained in at least 2 different experiments. *, P<0.01.
as §1

PAE-PDGFR-β cells = assay: Endothelial cell proliferation in response to PDGF-BB; format: cell-based, porcine; conditions: recombinant TIMP3 (1 and 5 μg/ml) or overexpression
PAE-FGFR1 cells = assay: Endothelial cell proliferation in response to bFGF; format: cell-based, porcine; conditions: recombinant TIMP3 (1 and 5 μg/ml) or overexpression
PDGFR-β = target: T1, PDGFR-β (Homo sapiens, UniProt P09619); assay: PDGF-BB-induced PDGFR-β phosphorylation (immunoprecipitation/immunoblot); format: cell-based; conditions: 1 μg/ml; PAE-PDGFR-β cells
T1 construct: expressed in transfected cells; host or cells: porcine aortic endothelial (PAE) cells
Experimental: PDGF-BB-mediated phosphorylation was examined similarly in PAESPDGFR-β cells (anti-PDGFR-β; top right panel). […] PDGF-BB-mediated phosphorylation of PDGFR-β in PAE-PDGFR-β cells overexpressing TIMP3 (top right). KDR protein or PDGFR-β protein was analyzed by both immunoprecipitation and immunoblotting with antibodies specific for KDR (left) or for PDGFR-β (right; A and B, second panels from top). […] Total protein levels of ERK were determined by immunoblotting with antibodies specific for ERK1/2 (anti-ERK1/2; A and B, bottom).
Cell fractions, prepared as described earlier, or immunoprecipitates of the lysates with the indicated antibodies, were subjected to SDS-PAGE. Proteins were detected with horseradish peroxidase-conjugated antibodies specific for either rabbit or mouse IgG (Amersham Pharmacia, Piscataway, N.J.) followed by enhanced chemiluminescence.

VEGF = target: T2, VEGF (Homo sapiens, UniProt P15692); assay: Solid-phase direct binding of [125I]VEGF to wells coated with TIMPs
T2 construct: purchased Genentech (gift, not bought)
T2 sequence (P15692 27-191 isoform P15692-4): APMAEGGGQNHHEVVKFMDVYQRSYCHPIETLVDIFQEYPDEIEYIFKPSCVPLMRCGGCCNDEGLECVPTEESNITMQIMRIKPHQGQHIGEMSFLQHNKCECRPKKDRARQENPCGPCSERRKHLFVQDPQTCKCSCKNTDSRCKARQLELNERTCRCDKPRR

KDR-IgG = target: T3, KDR-IgG (Homo sapiens, UniProt P35968); assay: Cross-linking of [125I]TIMP3 to soluble KDR; format: binding; conditions: bis(sulfosuccinimidyl)suberate
T3 construct: purchased R&D Systems
Experimental: Immunoprecipitation of cell lysates with antibodies specific for TIMP3 was followed by immunoblotting with antibodies specific for KDR (top). As a control for KDR receptor, cell lysates were immunoprecipitated with anti-bodies specific for KDR and probed with antibodies specific for KDR Immunoprecipitation with antibodies specific for KDR and immunoblotting with antibodies specific for TIMP3 (bottom) were carried out on PAE-KDR cells exposed to recombinant TIMP3 or PAE-KDR-vector and PAE-KDR cells overexpressing TIMP3, to confirm the interaction. […] Competition with unlabeled TIMP3 was carried out to ensure specificity. […] (E) In vivo interaction of KDR and TIMP3 in human placenta. Immunoprecipitation using antibodies specific TIMP3 (top) and KDR (bottom) was followed by immunoblotting with antibodies specific for KDR (top) and TIMP3 (bottom).
Ligand-receptor complexes on the cell surface were crosslinked with 0.5 mM disuccinimidyl suberate (Pierce) and analyzed by immunoprecipitation and SDS-PAGE followed by autoradiography. For in vitro assays, radioligand was crosslinked with 250 ng soluble KDR.

VEGFR-2 (KDR) = target: T4, VEGFR-2 (KDR) (Homo sapiens, UniProt P35968); assay: [125I]VEGF binding in transfected PAEKDR cell lines; conditions: PAEKDR cells expressing WT-TIMP3
T4 construct: To determine whether these receptor isoforms represent full-length VEGFR-2; expressed in transfected cells; host or cells: porcine aortic endothelial (PAE) cells
Experimental: PAEKDR cells were transfected with TIMP3 cDNA or empty vector using Lipofectamine reagent (Gibco-BRL Rockville, Md.). Stable clones were isolated using Hygromycin selection.
After washing, the cell monolayers were solubilized with lysis buffer (20 mM Tris HCl pH 7.5, 1% triton X 100 and 10% glycerol), and the radioactivity measured in a gamma counter.

soluble VEGFR-2 = assay: Soluble VEGFR-2 (sKDR) in conditioned medium (ELISA); format: cell-based, human; conditions: WT-TIMP3 cells; data not shown
PAEKDR cells = assay: VEGF-stimulated migration (modified Boyden chamber) of transfected PAEKDR cells; format: cell-based, porcine; conditions: VEGF 50 ng/ml
Experimental: A modified Boyden chamber assay was carried out as described previously 34. Briefly, 8.0 μm pore PVPF polycarbonate membranes were pre-coated with 100 μg/ml collagen type I in 0.2 N acetic acid (Cohesion technologies, INC. Pala Alto, Calif.). […] Chamber was then incubated for 4 hrs at 37° C. in a 5% CO2 humidified incubator. Cells remaining on the top of the filter were removed. Cells on the bottom surface of the filter were fixed, stained and mounted. The number of migrating cells per well was counted microscopically.

T1 sequence (P09619 33-1106, species assumed): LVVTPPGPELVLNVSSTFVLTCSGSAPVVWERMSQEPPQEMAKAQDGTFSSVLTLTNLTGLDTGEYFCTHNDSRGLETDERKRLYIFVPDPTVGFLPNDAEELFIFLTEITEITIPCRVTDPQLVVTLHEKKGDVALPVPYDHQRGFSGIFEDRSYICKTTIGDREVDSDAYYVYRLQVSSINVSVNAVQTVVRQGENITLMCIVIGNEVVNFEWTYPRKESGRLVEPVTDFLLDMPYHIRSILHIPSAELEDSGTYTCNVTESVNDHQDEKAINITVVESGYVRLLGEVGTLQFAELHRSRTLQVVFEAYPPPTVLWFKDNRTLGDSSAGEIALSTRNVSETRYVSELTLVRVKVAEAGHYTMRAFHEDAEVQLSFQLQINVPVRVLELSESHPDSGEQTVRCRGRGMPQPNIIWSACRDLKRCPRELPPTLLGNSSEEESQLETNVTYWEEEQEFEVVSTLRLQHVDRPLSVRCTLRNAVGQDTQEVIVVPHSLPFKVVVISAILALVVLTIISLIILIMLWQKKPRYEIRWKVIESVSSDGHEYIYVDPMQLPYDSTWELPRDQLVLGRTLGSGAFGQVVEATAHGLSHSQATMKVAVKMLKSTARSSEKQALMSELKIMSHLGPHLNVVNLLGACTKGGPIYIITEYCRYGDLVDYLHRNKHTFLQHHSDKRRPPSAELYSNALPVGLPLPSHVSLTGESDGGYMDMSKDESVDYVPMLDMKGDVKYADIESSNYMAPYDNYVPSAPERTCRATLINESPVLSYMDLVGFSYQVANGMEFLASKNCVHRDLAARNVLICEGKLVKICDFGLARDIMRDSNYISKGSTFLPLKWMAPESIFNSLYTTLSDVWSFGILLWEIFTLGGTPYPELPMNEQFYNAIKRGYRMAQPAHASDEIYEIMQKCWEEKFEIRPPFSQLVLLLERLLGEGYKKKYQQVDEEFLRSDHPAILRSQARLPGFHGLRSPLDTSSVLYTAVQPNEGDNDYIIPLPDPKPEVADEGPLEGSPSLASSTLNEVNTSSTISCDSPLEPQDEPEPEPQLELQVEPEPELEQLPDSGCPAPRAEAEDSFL
T3 sequence (P35968 20-764 limits assumed): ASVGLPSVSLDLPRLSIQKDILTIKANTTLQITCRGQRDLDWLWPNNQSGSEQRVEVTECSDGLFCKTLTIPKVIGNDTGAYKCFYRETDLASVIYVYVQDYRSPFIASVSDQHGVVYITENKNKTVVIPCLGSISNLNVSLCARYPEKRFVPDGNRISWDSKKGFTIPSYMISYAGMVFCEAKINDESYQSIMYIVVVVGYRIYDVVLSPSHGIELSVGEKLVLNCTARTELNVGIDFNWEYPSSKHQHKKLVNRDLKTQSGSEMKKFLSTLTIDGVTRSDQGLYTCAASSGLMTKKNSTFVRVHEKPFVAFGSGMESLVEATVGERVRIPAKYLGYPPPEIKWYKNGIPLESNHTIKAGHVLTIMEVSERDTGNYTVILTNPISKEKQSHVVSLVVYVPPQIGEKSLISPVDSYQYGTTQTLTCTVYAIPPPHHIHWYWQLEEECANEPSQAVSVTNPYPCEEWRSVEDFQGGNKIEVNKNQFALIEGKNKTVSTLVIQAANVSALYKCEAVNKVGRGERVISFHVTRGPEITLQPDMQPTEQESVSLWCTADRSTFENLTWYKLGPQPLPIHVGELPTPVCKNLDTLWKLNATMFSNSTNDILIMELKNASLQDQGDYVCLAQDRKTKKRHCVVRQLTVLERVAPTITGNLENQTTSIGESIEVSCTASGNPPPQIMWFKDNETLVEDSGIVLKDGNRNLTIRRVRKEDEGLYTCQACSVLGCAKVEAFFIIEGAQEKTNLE
T4 sequence (P35968 20-1356): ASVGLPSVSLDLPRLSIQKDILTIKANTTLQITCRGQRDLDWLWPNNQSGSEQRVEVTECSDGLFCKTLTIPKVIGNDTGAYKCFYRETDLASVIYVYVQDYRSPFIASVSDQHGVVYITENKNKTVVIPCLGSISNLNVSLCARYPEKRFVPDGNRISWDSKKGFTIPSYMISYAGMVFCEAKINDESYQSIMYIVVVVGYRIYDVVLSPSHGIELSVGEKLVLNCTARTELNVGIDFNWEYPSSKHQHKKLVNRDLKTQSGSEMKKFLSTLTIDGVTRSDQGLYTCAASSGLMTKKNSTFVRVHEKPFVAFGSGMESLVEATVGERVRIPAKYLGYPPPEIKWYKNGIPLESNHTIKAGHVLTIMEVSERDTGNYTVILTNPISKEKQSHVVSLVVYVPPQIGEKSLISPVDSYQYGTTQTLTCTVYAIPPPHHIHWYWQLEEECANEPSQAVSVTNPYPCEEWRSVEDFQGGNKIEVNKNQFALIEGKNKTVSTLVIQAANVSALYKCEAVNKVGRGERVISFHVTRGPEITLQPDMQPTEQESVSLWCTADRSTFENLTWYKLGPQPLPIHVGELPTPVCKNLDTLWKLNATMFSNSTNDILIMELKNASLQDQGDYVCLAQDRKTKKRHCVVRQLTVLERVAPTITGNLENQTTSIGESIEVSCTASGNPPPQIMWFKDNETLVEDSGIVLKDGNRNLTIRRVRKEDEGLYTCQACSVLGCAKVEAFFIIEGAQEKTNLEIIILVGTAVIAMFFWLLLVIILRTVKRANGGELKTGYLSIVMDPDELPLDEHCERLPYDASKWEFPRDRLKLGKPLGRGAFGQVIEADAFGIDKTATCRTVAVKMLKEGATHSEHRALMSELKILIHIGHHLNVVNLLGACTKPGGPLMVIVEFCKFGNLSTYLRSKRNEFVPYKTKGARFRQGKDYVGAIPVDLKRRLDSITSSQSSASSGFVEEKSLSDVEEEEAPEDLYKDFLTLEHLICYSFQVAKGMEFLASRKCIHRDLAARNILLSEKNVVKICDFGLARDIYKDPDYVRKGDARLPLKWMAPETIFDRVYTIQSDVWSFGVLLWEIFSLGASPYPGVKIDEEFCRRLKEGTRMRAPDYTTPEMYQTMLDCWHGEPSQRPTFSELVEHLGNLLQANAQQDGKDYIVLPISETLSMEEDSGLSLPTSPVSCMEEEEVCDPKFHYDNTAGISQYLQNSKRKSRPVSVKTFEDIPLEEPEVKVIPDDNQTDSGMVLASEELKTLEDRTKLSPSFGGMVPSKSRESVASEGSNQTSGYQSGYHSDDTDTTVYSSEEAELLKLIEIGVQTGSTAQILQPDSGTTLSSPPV

B1: TIMP3: tissue inhibitor of metalloproteinases-3; recombinant human form expressed in NSO myeloma cells, or wild-type expressed in transfected cells (protein, listed as Homo sapiens)
chain: MTPWLGLIVLLGSWSLGDWGAEACTCSPSHPQDAFCNSDIVIRAKVVGKKLVKEGPFGTLVYTIKQMKMYRGFTKMPHVQYIHTEASESLCGLKLEVNKYQYLLTGRVYDGKMYTGLCNFVERWDQLTLSQRKGLNYRYHLGCNCKIKSCYYLPCFVTSKNECLWTDMLSNFGYPGYQSKHYACIRQKGGYCSWYRGWAPPDKSIINATDP
- CAMs in which VEGF-induced branching and leakage of blood vessels were inhibited ([1]; 0.75 μg/disk, n=8): 75%
- CAMs in which VEGF-induced branching and leakage of blood vessels were inhibited ([1]; […], n=10): 90%
- inhibition of endothelial cell migration toward VEGF (PAE-KDR cells [2]; added exogenously, VEGF165 10 ng/ml): inhibited their migration toward VEGF in a dose-dependent manner
- dose giving complete inhibition of migration toward VEGF (PAE-KDR cells [2]; recombinant protein added exogenously): 3 µg/mL
- chemotactic response to VEGF121 and VEGF165 (PAE-KDR cells [2]; stable expression of TIMP3 in the endothelial cells): attenuation of the chemotactic response
- inhibition of proliferative response to VEGF165 and VEGF121 (PAE-KDR cells [3]; added exogenously at 0.3-1 μg/ml): inhibited the proliferative response
- proliferative response to VEGF165 and VEGF121 (PAE-KDR cells [3]; over-expression of TIMP3 in endothelial cells): attenuation of the proliferative response
- dose required to block the biological responses of in vivo angiogenesis, endothelial cell proliferation and migration (PAE-KDR cells [3]; summary over CAM, proliferation and migration assays): 0.3-3 μg/ml
- effect on proliferative response to PDGF-BB (PAE-PDGFR-β cells): Neither recombinant TIMP3 nor TIMP3 overexpression affected the proliferative response
- effect on proliferative response to basic fibroblast growth factor (bFGF) (PAE-FGFR1 cells): Neither recombinant TIMP3 nor TIMP3 overexpression affected the proliferative response
- effect on phosphorylation of PDGFR-β stimulated with PDGF-BB (PDGFR-β): did not affect
- direct binding of [125I]VEGF to coated TIMP (VEGF): did not detect direct binding
- direct binding of [125I]TIMP3 to KDR-IgG by cross-linking (KDR-IgG): could be covalently cross-linked to KDR-IgG
- effect on binding of [125I] VEGF to KDR (VEGFR-2 (KDR)): dramatically inhibited the binding
- cleaved sVEGFR-2 in the CM, less than mock cells (soluble VEGFR-2): 10 fold
- VEGF-stimulated migration of cells expressing TIMP3 variant (PAEKDR cells): dramatically reduced basal and VEGF-stimulated migration
